The values below come from PMC10076285, “Oncogenic CALR mutant C-terminus mediates dual binding to the thrombopoietin receptor triggering complex dimerization and activation” (Nature Communications, 2023).

By Kd is commonly meant the concentration at which binding is half-saturated.

This experiment concerns the target T1, Recombinant human TpoR extracellular domain D1-D4 with mature N-glycans (human, UniProt P40238 26-489, mature N-glycans (4 N-glycans on the ECD)).
T1 construct: thrombopoietin receptor (TpoR), human, extracellular domain D1-D4, starts at Q26 and ends at T489; details in Supplementary Methods; also called TpoR D1-D4; hTpoR D1-D4; source: Schneider S2 cells, purified; not shown: His tag, C-terminal, kept
T1 sequence (looked up): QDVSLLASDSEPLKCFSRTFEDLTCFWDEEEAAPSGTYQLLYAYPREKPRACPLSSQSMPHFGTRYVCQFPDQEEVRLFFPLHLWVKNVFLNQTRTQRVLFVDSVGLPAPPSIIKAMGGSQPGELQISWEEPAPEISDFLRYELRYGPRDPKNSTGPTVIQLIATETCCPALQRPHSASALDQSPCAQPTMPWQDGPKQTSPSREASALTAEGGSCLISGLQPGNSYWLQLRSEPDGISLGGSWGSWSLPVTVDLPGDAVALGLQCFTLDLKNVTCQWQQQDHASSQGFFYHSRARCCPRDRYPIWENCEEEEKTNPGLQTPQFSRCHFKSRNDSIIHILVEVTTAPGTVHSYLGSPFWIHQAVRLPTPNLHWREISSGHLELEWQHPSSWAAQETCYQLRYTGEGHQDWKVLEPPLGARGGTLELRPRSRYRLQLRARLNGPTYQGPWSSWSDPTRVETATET
The experiment in a line: MST; CALR del52 labelled with RED-NHS at 20 nM; label-free TpoR D1-D4 titrated 0.15 nM to 5 μM; Tris-based MST buffer with 0.01% Tween 20; Monolith NT.115, 40% LED, medium MST power. To be noted: both partners purified.

B1: Recombinant human CALR del52 (natural protein)
chain: EPAVYFKEQFLDGDGWTSRWIESKHKSDFGKFVLSSGKFYGDEEKDKGLQTSQDARFYALSASFEPFSNKGQTLVVQFTVKHEQNIDCGGGYVKLFPNSLDQTDMHGDSEYNIMFGPDICGPGTKKVHVIFNYKGKNVLINKDIRSKDDEFTHLYTLIVRPDNTYEVKIDNSQVESGSLEDDWDFLPPKKIKDPDASKPEDWDERAKIDDPTDSKPEDWDKPEHIPDPDAKKPEDWDEEMDGEWEPPVIQNPEYKGEWKPRQIDNPDYKGTWIHPEIDNPEYSPDPSIYAYDNFGVLGLDLWQVKSGTIFDNFLITNDEAYAEEFGNETWGVTKAAEKQMKDKQDEEQRTRRMMRTKMRMRRMRRTRRKMRRKMSPARPRTSCREACLQGWTEA
modifications: RED-NHS dye on lysines (in the MST experiment only)
With B1, the Kd was around 104 nM.
